The record followed here is patent US6589738B1, “Genes essential for microbial proliferation and antisense thereto” (priority 1999, dated 2003).

Converted amounts (≈) assume the structure as drawn. Bounds are passed on as bounds.

For orientation: IC50 means the concentration at which inhibition is half-maximal.

Series [1] deals with Bacterial cells containing IPTG-inducible antisense nucleic acid against rplL and rplJ (50S ribosomal subunit proteins). Briefly: microbe, parasite or virus in culture. It is filed as cell-based, E. coli. Particulars: Escherichia coli, read-out: IC50 (+IPTG). Here is the method: Antibiotics of various chemical classes and modes of action were purchased from Sigma Chemicals (St. Louis, Mo.). Stock solutions were prepared by dissolving each antibiotic in an appropriate aqueous solution based on information provided by the manufacturer. The final working solution of each antibiotic contained no more than 0.2% (w/v) of any organic solvent. To determine their potency against a bacterial strain engineered for expression of an antisense against a proliferation-required gene encoding 50S ribosomal protein, each antibiotic was serially diluted two or three fold in growth medium supplemented with the appropriate antibiotic for maintenance of the anti-sense construct. […]
Cells for the assay were prepared as follows. […] The plate was then loaded into a plate reader, incubated at constant temperature, and cell growth was monitored in each well by the measurement of light scattering at 595 nm. Growth was monitored every 5 minutes until the cell culture attained a stationary growth phase. For each concentration of antibiotic, a percentage inhibition of growth was calculated at the time point corresponding to mid-exponential growth for the associated control wells (no antibiotic, plus or minus IPTG). For each antibiotic and condition (plus or minus IPTG), a plot of percent inhibition versus log of antibiotic concentration was generated and the IC50 determined.

A further series concerns Escherichia coli. Briefly: Growth inhibition after IPTG induction of antisense RNA expression (Example 1; score of Example 12). In kind it is cell-based. Particulars: for effect of antisense expression on E. coli growth: 1 mM IPTG. Here is the method: (§1) To study the effects of transcriptional induction in liquid medium, growth curves were carried out by back diluting cultures 1:200 into fresh media with or without 1 mM IPTG and measuring the OD450 every 30 minutes (min). To study the effects of transcriptional induction on solid medium, 10^2, 10^3, 10^4, 10^5, 10^6, 10^7 and 10^8 fold dilutions of overnight cultures were prepared. Aliquots of from 0.5 to 3 μl of these dilutions were spotted on selective agar plates with or without 1 mM IPTG. After overnight incubation, the plates were compared to assess the sensitivity of the clones to IPTG.
Of the numerous clones tested, some clones were identified as containing a sequence that inhibited E. coli growth after IPTG induction. Accordingly, the gene to which the inserted nucleic acid sequence corresponds, or a gene within the operon containing the inserted nucleic acid, may be required for proliferation in E. coli.
(§2) Molecule No. EcXA059, encoding a portion of the ypjA gene of Escherichia coli, was either transformed directly into Enterobacter cloacae, Salmonella typhimurium and/or Klebsiella pneumoniae or subcloned into an expression vector functional in these species and the subclones transformed into these organisms. Suitable expression vectors are well known in the art. These expression vectors were introduced into Enterobacter cloacae, Salmonella typhimurium and/or Klebsiella pneumoniae cells that were then assayed for growth inhibition according to the method of Example 1. After growth in liquid culture, cells were plated at various serial dilutions and a score determined by calculating the log difference in growth for INDUCED vs. UNINDUCED antisense RNA expression as determined by the maximum 10 fold dilution at which a colony was observed. If there was no effect of antisense RNA expression in one organism, the clone is given a score of zero “0” in that organism. In contrast, a score of “8” means that 10^8 times more cells were required to observe a colony formed on the induced state than in the non-induced state under the conditions used and in that organism.

A further series relates to Salmonella typhimurium. The series can be described thus: Growth inhibition by E. coli antisense nucleic acids in another microorganism, INDUCED vs. UNINDUCED (Example 12, Table V). It is filed as cell-based. Particulars: for Sensitivity of S. typhimurium to antisense nucleic acid (growth inhibition, INDUCED vs. UNINDUCED): antisense RNA expression induced with IPTG, serial dilution plating. How it is done: as §1, §2
(§3) Expression vectors which inhibited growth of E. coli upon induction of antisense RNA expression with IPTG were transformed directly into Enterobacter cloacae, Klebsiella pneumonia or Salmonella typhimurium. The transformed cells were then assayed for growth inhibition according to the method of Example 1. After growth in liquid culture, cells were plated at various serial dilutions and a score determined by calculating the log difference in growth for INDUCED vs. UNINDUCED antisense RNA expression as determined by the maximum 10 fold dilution at which a colony was observed. If there was no effect of antisense RNA expression in a microorganism, the clone is minus in Table V below. In contrast, a positive in Table V below means that at least 10 fold more cells were required to observe a colony on the induced plate than on the non-induced plate under the conditions used and in that microorganism.

In another series the test system is Enterobacter cloacae. The description is as above. In kind it is cell-based. To be noted: for Sensitivity of E. cloacae to antisense nucleic acid (growth inhibition, INDUCED vs. UNINDUCED): antisense RNA expression induced with IPTG, serial dilution plating. How it is done: as §1, §2, §3
In a further series the test system is Klebsiella pneumoniae. The series is described as above. It is filed as cell-based. To be noted: for Sensitivity of K. pneumoniae to antisense nucleic acid (growth inhibition, INDUCED vs. UNINDUCED): antisense RNA expression induced with IPTG, serial dilution plating. Here is the method:
as §1, §2, §3

Turning to `NC[C@H]1O[C@H](O[C@H]2[C@H](O)[C@@H](O[C@H]3O[C@H](CO)[C@@H](O)[C@H](N)[C@H]3O)[C@H](N)C[C@@H]2N)[C@H](N)C[C@@H]1O` [Tobramycin], the IC50 in series [1] is 0.0705 µg/mL (≈ 0.151 µM).

B1: EcXA062: antisense clone insert, E. coli gene rep (nucleic acid, listed as Escherichia coli)
DNA: CGCGTGGAGAGTCATCAGTTGCACCTGATCCAGCTCTTCTTCACTCTCACCACGCTCNATCATGTCGCGCAAAGTAAAGCGCGTCACCACCTGGGTGAGCGTCATCGGCTCATCCAGTTCACTGCCTTCCAGCATCTCCGTCATCCAGCTAAACAGTTGGTTGACGTTCTTCATGCGCATTTCGGCGGCTTTCGGGCTGGGCGATGTTTCGTACAGCCAGGATTCATAATCCATGCCATGGATCAGATCACGCACCGCGGCAATCGGCTCCCGCTCCGCCAGACGCTGGATTTCTGCCAACCAGTGAGTGAAGCGGGTCAATGCTTCA
modifications: misc_feature (1)...(328): n = A,T,C or G
notes: antisense clone insert, E. coli gene rep
Turning to B1, the “effect of antisense expression on E. coli growth” value (“effect of antisense expression” below) with Escherichia coli is on record as “reduction in cell growth”.

B2: EcXA059: antisense clone insert encoding a portion of the ypjA gene of Escherichia coli (nucleic acid, listed as Escherichia coli)
DNA: NACCANGANTGGGACCCAAATGAAAATTGAACTGAAGATTACAATCAATTTAACANCAAGTTACACAACCAATTCAGACTCCGCCAGCCCACCAATCATGATTGGACGGTGTAAGGACAACACCAACAAAAACAGGAAGTTAGAAGTCTNAGCAAAACACCGACCAGACGGTGAGGAGACATAAAAGGATACGCAAAGGAGCCGCGGCTCCTGGTAACATGAAAGCCCACAGATGTGGGCTTTTTCGTTGATGGTCAGAACGACCAGTTCACACCAGCTACCGCGTTCCACGGGGATTCCACACCGGCACTATGGCTATACCCCACCCCAAGATGCCCGCTTAACGTACTGCTGAATGAGGCTTTAATACCTGCCTGGTATATTCCACGTCTGCCCGACAAATAATTGACGAAATTACCGNCACTATTCACTTTCACCCGGTTATCATCGACAAATTCTTTGCGCACAAGCCGNCTTCAGCCACGGNTCAACTTCCATACCGNTCCCCAGACGCATGTTGTAACTCAACGTTGCGCCCAGTTCACGATATATACTGCGGGTATCGACTGATTTCGATTTCATGCCATTGGATAAATGATATTCGGGGTTATCAGCGGTGAAACCCGTTNACGATGCATACNGGGTCAGGGTTCAATTACCATCGGTAAATCGCATTCCCGGTTTCAATGTGACCGCCAANCCCGTTGCTGTNGGTAACTGGCATTGGCGGGTTCANCGGTGGTAATTTTAACCTGGTACGNTACTTTTAAAACGGGTTAAGCTTTACCGAANACCGTNCANNATTGGAAACCCNCTTTTAATGGTTNCCCAACTNGGNN
modifications: misc_feature (1)...(839): n = A,T,C or G
notes: antisense clone insert encoding a portion of the ypjA gene of Escherichia coli
With B2, the “score (log difference in growth for INDUCED vs. UNINDUCED antisense RNA expression)” value is reported as 8 in the series on Escherichia coli (Escherichia coli, maximum 10 fold dilution at which a colony was observed); 8 in the series with Salmonella typhimurium (Salmonella typhimurium, IPTG induction); 8 in the series on Enterobacter cloacae (Enterobacter cloacae, IPTG induction); > 7 in the series with Klebsiella pneumoniae (Klebsiella pneumoniae, IPTG induction). Also, in the series with Salmonella typhimurium, the “Sensitivity of S. typhimurium to antisense nucleic acid (growth inhibition, INDUCED vs. UNINDUCED)” value is reported as “+ (a positive in Table V below means that at least 10 fold more cells were required to observe a colony on the induced plate than on the non-induced plate)”. For the same molecule, in the series with Enterobacter cloacae, the “Sensitivity of E. cloacae to antisense nucleic acid (growth inhibition, INDUCED vs. UNINDUCED)” value is listed as “+ (a positive in Table V below means that at least 10 fold more cells were required to observe a colony on the induced plate than on the non-induced plate)”. For the same molecule, the “Sensitivity of K. pneumoniae to antisense nucleic acid (growth inhibition, INDUCED vs. UNINDUCED)” value in the series on Klebsiella pneumoniae is given as “+ (a positive in Table V below means that at least 10 fold more cells were required to observe a colony on the induced plate than on the non-induced plate)”.

B3: EcXA082: antisense clone insert, E. coli genes hybC; hybB (nucleic acid, listed as Escherichia coli)
DNA: TGCTTTGCTCGCCTCATGACGATTATGATCGTTTTGTTTTAAAGGAGGAAGTATCGGCAGTAGACGAATGAGTACGATGTAAGCGCAAATCTCAATAGCCACAAAACCAATAGAAATCAACAGTTCTTCCCAGGTCGGGAAGTA
In the case of B3, the “effect of antisense expression” value in the series with Escherichia coli is recorded as “reduction in cell growth”. For the same molecule, in the series on Enterobacter cloacae, the “Sensitivity of E. cloacae to antisense nucleic acid (growth inhibition, INDUCED vs. UNINDUCED)” value is listed as “+ (a positive in Table V below means that at least 10 fold more cells were required to observe a colony on the induced plate than on the non-induced plate)”.

B4: EcXA083: antisense clone insert, E. coli gene hrpB (nucleic acid, listed as Escherichia coli)
DNA: CGGCTTAGCGCGTCGTTGGCATCGAGCATCGCTCCCATGCCGTTTGCCAGTTGATAGCGTCCATCTTGCC
With B4, in the series with Escherichia coli, the “effect of antisense expression” value was “reduction in cell growth”.

B5: EcXA104: antisense clone insert, E. coli gene hsdS (nucleic acid, listed as Escherichia coli)
DNA: GACGCGGCGAACGATTTCGGCTTGTTCTTTTACTGGAGGTAATAAAACAACTTGGGATTTGATATCTTTTCCTGAAATACCTTTTTGACCAGAAGTTGTTTTCACGCAGTTCATCATTGCATTTCGTGCTGAGGGGGATGAAAAAAATATTTCGATATATTCTGGTAAAGCATCTTT
Regarding B5, the “effect of antisense expression” value in the series on Escherichia coli is “reduction in cell growth”. The “Sensitivity of S. typhimurium to antisense nucleic acid (growth inhibition, INDUCED vs. UNINDUCED)” value with Salmonella typhimurium was “+ (a positive in Table V below means that at least 10 fold more cells were required to observe a colony on the induced plate than on the non-induced plate)”. In addition, in the series with Enterobacter cloacae, the “Sensitivity of E. cloacae to antisense nucleic acid (growth inhibition, INDUCED vs. UNINDUCED)” value is “+ (a positive in Table V below means that at least 10 fold more cells were required to observe a colony on the induced plate than on the non-induced plate)”. Besides, the “Sensitivity of K. pneumoniae to antisense nucleic acid (growth inhibition, INDUCED vs. UNINDUCED)” value with Klebsiella pneumoniae was “+ (a positive in Table V below means that at least 10 fold more cells were required to observe a colony on the induced plate than on the non-induced plate)”.

B6: EcXA072: antisense clone insert, E. coli gene recJ (nucleic acid, listed as Escherichia coli)
DNA: GATTTTTACCGGATTAATTTTAAACATGGTCTGATTTCTTTTATTGAGCTAGTCAAAATGCGGTGATAAGAGCGGGATTGTCCCAATCCACGCTCTTTTTTATAGAGAAGATGACGCTAAATTGGCCAGATATTGTCGATGATAATTTG
Take B6: the “effect of antisense expression” value in the series with Escherichia coli is “reduction in cell growth”. For the same molecule, the “Sensitivity of S. typhimurium to antisense nucleic acid (growth inhibition, INDUCED vs. UNINDUCED)” value in the series on Salmonella typhimurium is listed as “+ (a positive in Table V below means that at least 10 fold more cells were required to observe a colony on the induced plate than on the non-induced plate)”. Further, in the series on Klebsiella pneumoniae, the “Sensitivity of K. pneumoniae to antisense nucleic acid (growth inhibition, INDUCED vs. UNINDUCED)” value was “+ (a positive in Table V below means that at least 10 fold more cells were required to observe a colony on the induced plate than on the non-induced plate)”.
